Experimental data reported in patent publication EP4538286A1 (Adlai Nortye Biopharma Co., Ltd., dated 2025).

T1: human CTLA4 protein (human, UniProt P16410 37-162, limits assumed)
T1 construct: bought protein coated on the ELISA plate; also called human CTLA4 antigen
T1 sequence (looked up): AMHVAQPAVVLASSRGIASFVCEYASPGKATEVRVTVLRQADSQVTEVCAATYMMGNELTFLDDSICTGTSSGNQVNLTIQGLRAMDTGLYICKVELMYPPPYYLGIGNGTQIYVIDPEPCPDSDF


Assays:
human CD28 protein = biological target: T2, human CD28 protein (human, UniProt P10747 19-152); experiment: ELISA, plate-coated human CD28; design: binding strength @ 100nM: reference not given here
T2 construct: bought protein coated on the ELISA plate; also called human CD28 antigen
T2 sequence (P10747 19-152 limits assumed): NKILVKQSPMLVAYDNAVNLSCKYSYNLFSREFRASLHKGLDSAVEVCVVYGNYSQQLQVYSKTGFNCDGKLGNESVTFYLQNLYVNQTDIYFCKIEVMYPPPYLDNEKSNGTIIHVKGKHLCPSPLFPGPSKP

[1] = biological target: PD-L1 on TCR activator PD-L1-CHO cells (UniProt Q9NZQ7 19-290, limits assumed); experiment: cell-based or functional assay
Chain of PD-L1 on TCR activator PD-L1-CHO cells (Q9NZQ7 19-290 limits assumed): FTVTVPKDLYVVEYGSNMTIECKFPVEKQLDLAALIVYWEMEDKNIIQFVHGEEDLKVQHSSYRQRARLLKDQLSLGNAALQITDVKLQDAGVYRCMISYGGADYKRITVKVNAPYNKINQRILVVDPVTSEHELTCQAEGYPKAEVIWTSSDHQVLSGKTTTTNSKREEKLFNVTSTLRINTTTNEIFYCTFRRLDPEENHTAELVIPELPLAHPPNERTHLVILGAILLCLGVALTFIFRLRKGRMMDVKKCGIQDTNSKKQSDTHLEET

human CTLA4 protein = biological target: T1, human CTLA4 protein; experiment: ELISA, plate-coated human CTLA4

Binder	EC50 (human CD28 protein)	binding strength @ 100nM (human CD28 protein)	EC50(nM), Jurkat-NFAT-Luc/CHO-PDL1 [1]	The highest induction relative to 10 nM sugemalimab [1]	EC50 (human CTLA4 protein)	binding strength @ 20nM (human CTLA4 protein)	binding result (human CD28 protein)	binding result (human CTLA4 protein)
Abs-355 (other, CD80 IgV mutant fused to the N-terminus of the sugemalimab heavy chain; also called CD80 IgV mutant E35N/A71Q-sugemalimab fusion) heavy: VIHVTKEVKEVATLSCGHNVSVEELAQTRIYWQKNKKMVLTMMSGDMNIWPEYKNRTIFDITNNLSIVILQLRPSDEGTYECVVLKYEKDAFKREHLAEVTLSVKADGGGGSGGGGSGGGGSGGGGSGEVQLLESGGGLVQPGGSLRLSCAASGFTFSSYAMSWVRQAPGKGLEWVSGISGSGGFTYYADSVKGRFTISRDNSKNTLYLQMNSLRAEDTAVYYCAKPPRGYNYGPFDYWGQGTLVTVSSASTKGPSVFPLAPCSRSTSESTAALGCLVKDYFPEPVTVSWNSGALTSGVHTFPAVLQSSGLYSLSSVVTVPSSSLGTKTYTCNVDHKPSNTKVDKRVESKYGPPCPPCPAPEFLGGPSVFLFPPKPKDTLMISRTPEVTCVVVDVSQEDPEVQFNWYVDGVEVHNAKTKPREEQFNSTYRVVSVLAVLHQDWLNGKEYKCKVSNKGLPSSIEKTISKAKGQPREPQVYTLPPSQEEMTKNQVSLTCLVKGFYPSDIAVAWESNGQPENNYKTTPPVLDSDGSFFLYSRLTVDKSRWQEGNVFSCSVMHEALHAHYTQKSLSLSLGK light: SYVLTQPPSVSVAPGQTARITCGGNNIGSKSVHWYQQKPGQAPVLVVYDDSDRPSGIPERFSGSNSGNTATLTISRVEAGDEADYYCQVWDSSSDHVVFGGGTKLTVLGQPKAAPSVTLFPPSSEELQANKATLVCLISDFYPGAVTVAWKADSSPVKAGVETTTPSKQSNNKYAASSYLSLTPEQWKSHRSYSCQVTHEGSTVEKTVAPTECS	26.8 nM	530%	0.56 nM	1110%	0.236 nM	3420%	–	–
Abs-356 (other, CD80 IgV mutant fused to the N-terminus of the sugemalimab heavy chain; also called CD80 IgV mutant E35N/A71T-sugemalimab fusion) heavy: VIHVTKEVKEVATLSCGHNVSVEELAQTRIYWQKNKKMVLTMMSGDMNIWPEYKNRTIFDITNNLSIVILTLRPSDEGTYECVVLKYEKDAFKREHLAEVTLSVKADGGGGSGGGGSGGGGSGGGGSGEVQLLESGGGLVQPGGSLRLSCAASGFTFSSYAMSWVRQAPGKGLEWVSGISGSGGFTYYADSVKGRFTISRDNSKNTLYLQMNSLRAEDTAVYYCAKPPRGYNYGPFDYWGQGTLVTVSSASTKGPSVFPLAPCSRSTSESTAALGCLVKDYFPEPVTVSWNSGALTSGVHTFPAVLQSSGLYSLSSVVTVPSSSLGTKTYTCNVDHKPSNTKVDKRVESKYGPPCPPCPAPEFLGGPSVFLFPPKPKDTLMISRTPEVTCVVVDVSQEDPEVQFNWYVDGVEVHNAKTKPREEQFNSTYRVVSVLAVLHQDWLNGKEYKCKVSNKGLPSSIEKTISKAKGQPREPQVYTLPPSQEEMTKNQVSLTCLVKGFYPSDIAVAWESNGQPENNYKTTPPVLDSDGSFFLYSRLTVDKSRWQEGNVFSCSVMHEALHAHYTQKSLSLSLGK light: SYVLTQPPSVSVAPGQTARITCGGNNIGSKSVHWYQQKPGQAPVLVVYDDSDRPSGIPERFSGSNSGNTATLTISRVEAGDEADYYCQVWDSSSDHVVFGGGTKLTVLGQPKAAPSVTLFPPSSEELQANKATLVCLISDFYPGAVTVAWKADSSPVKAGVETTTPSKQSNNKYAASSYLSLTPEQWKSHRSYSCQVTHEGSTVEKTVAPTECS	27.8 nM	733%	0.9 nM	441%	18.5 nM	1670%	–	–
Abs-357 (other, CD80 IgV mutant fused to the N-terminus of the sugemalimab heavy chain; also called CD80 IgV mutant E35S/A71E-sugemalimab fusion) heavy: VIHVTKEVKEVATLSCGHNVSVEELAQTRIYWQKSKKMVLTMMSGDMNIWPEYKNRTIFDITNNLSIVILELRPSDEGTYECVVLKYEKDAFKREHLAEVTLSVKADGGGGSGGGGSGGGGSGGGGSGEVQLLESGGGLVQPGGSLRLSCAASGFTFSSYAMSWVRQAPGKGLEWVSGISGSGGFTYYADSVKGRFTISRDNSKNTLYLQMNSLRAEDTAVYYCAKPPRGYNYGPFDYWGQGTLVTVSSASTKGPSVFPLAPCSRSTSESTAALGCLVKDYFPEPVTVSWNSGALTSGVHTFPAVLQSSGLYSLSSVVTVPSSSLGTKTYTCNVDHKPSNTKVDKRVESKYGPPCPPCPAPEFLGGPSVFLFPPKPKDTLMISRTPEVTCVVVDVSQEDPEVQFNWYVDGVEVHNAKTKPREEQFNSTYRVVSVLAVLHQDWLNGKEYKCKVSNKGLPSSIEKTISKAKGQPREPQVYTLPPSQEEMTKNQVSLTCLVKGFYPSDIAVAWESNGQPENNYKTTPPVLDSDGSFFLYSRLTVDKSRWQEGNVFSCSVMHEALHAHYTQKSLSLSLGK light: SYVLTQPPSVSVAPGQTARITCGGNNIGSKSVHWYQQKPGQAPVLVVYDDSDRPSGIPERFSGSNSGNTATLTISRVEAGDEADYYCQVWDSSSDHVVFGGGTKLTVLGQPKAAPSVTLFPPSSEELQANKATLVCLISDFYPGAVTVAWKADSSPVKAGVETTTPSKQSNNKYAASSYLSLTPEQWKSHRSYSCQVTHEGSTVEKTVAPTECS	26 nM	585%	1 nM	238%	17.8 nM	1830%	–	–

More lines, now with the values ahead:

EC50 (human CD28 protein)	binding strength @ 100nM (human CD28 protein)	EC50(nM), Jurkat-NFAT-Luc/CHO-PDL1 [1]	The highest induction relative to 10 nM sugemalimab [1]	EC50 (human CTLA4 protein)	binding strength @ 20nM (human CTLA4 protein)	binding result (human CD28 protein)	binding result (human CTLA4 protein)	Binder
–	–	1.1 nM	277%	–	–	no binding	no binding	Abs-358 (other, CD80 IgV mutant fused to the N-terminus of the sugemalimab heavy chain; also called CD80 IgV mutant E35S/A71N-sugemalimab fusion) heavy: VIHVTKEVKEVATLSCGHNVSVEELAQTRIYWQKSKKMVLTMMSGDMNIWPEYKNRTIFDITNNLSIVILNLRPSDEGTYECVVLKYEKDAFKREHLAEVTLSVKADGGGGSGGGGSGGGGSGGGGSGEVQLLESGGGLVQPGGSLRLSCAASGFTFSSYAMSWVRQAPGKGLEWVSGISGSGGFTYYADSVKGRFTISRDNSKNTLYLQMNSLRAEDTAVYYCAKPPRGYNYGPFDYWGQGTLVTVSSASTKGPSVFPLAPCSRSTSESTAALGCLVKDYFPEPVTVSWNSGALTSGVHTFPAVLQSSGLYSLSSVVTVPSSSLGTKTYTCNVDHKPSNTKVDKRVESKYGPPCPPCPAPEFLGGPSVFLFPPKPKDTLMISRTPEVTCVVVDVSQEDPEVQFNWYVDGVEVHNAKTKPREEQFNSTYRVVSVLAVLHQDWLNGKEYKCKVSNKGLPSSIEKTISKAKGQPREPQVYTLPPSQEEMTKNQVSLTCLVKGFYPSDIAVAWESNGQPENNYKTTPPVLDSDGSFFLYSRLTVDKSRWQEGNVFSCSVMHEALHAHYTQKSLSLSLGK light: SYVLTQPPSVSVAPGQTARITCGGNNIGSKSVHWYQQKPGQAPVLVVYDDSDRPSGIPERFSGSNSGNTATLTISRVEAGDEADYYCQVWDSSSDHVVFGGGTKLTVLGQPKAAPSVTLFPPSSEELQANKATLVCLISDFYPGAVTVAWKADSSPVKAGVETTTPSKQSNNKYAASSYLSLTPEQWKSHRSYSCQVTHEGSTVEKTVAPTECS
21.1 nM	450%	0.88 nM	42%	26.4 nM	766%	–	–	Abs-359 (other, CD80 IgV mutant fused to the N-terminus of the sugemalimab heavy chain; also called CD80 IgV mutant E35S/A71Q-sugemalimab fusion) heavy: VIHVTKEVKEVATLSCGHNVSVEELAQTRIYWQKSKKMVLTMMSGDMNIWPEYKNRTIFDITNNLSIVILQLRPSDEGTYECVVLKYEKDAFKREHLAEVTLSVKADGGGGSGGGGSGGGGSGGGGSGEVQLLESGGGLVQPGGSLRLSCAASGFTFSSYAMSWVRQAPGKGLEWVSGISGSGGFTYYADSVKGRFTISRDNSKNTLYLQMNSLRAEDTAVYYCAKPPRGYNYGPFDYWGQGTLVTVSSASTKGPSVFPLAPCSRSTSESTAALGCLVKDYFPEPVTVSWNSGALTSGVHTFPAVLQSSGLYSLSSVVTVPSSSLGTKTYTCNVDHKPSNTKVDKRVESKYGPPCPPCPAPEFLGGPSVFLFPPKPKDTLMISRTPEVTCVVVDVSQEDPEVQFNWYVDGVEVHNAKTKPREEQFNSTYRVVSVLAVLHQDWLNGKEYKCKVSNKGLPSSIEKTISKAKGQPREPQVYTLPPSQEEMTKNQVSLTCLVKGFYPSDIAVAWESNGQPENNYKTTPPVLDSDGSFFLYSRLTVDKSRWQEGNVFSCSVMHEALHAHYTQKSLSLSLGK light: SYVLTQPPSVSVAPGQTARITCGGNNIGSKSVHWYQQKPGQAPVLVVYDDSDRPSGIPERFSGSNSGNTATLTISRVEAGDEADYYCQVWDSSSDHVVFGGGTKLTVLGQPKAAPSVTLFPPSSEELQANKATLVCLISDFYPGAVTVAWKADSSPVKAGVETTTPSKQSNNKYAASSYLSLTPEQWKSHRSYSCQVTHEGSTVEKTVAPTECS
25.9 nM	933%	0.82 nM	64%	26.7 nM	316%	–	–	Abs-360 (other, CD80 IgV mutant fused to the N-terminus of the sugemalimab heavy chain; also called CD80 IgV mutant E35S/A71T-sugemalimab fusion) heavy: VIHVTKEVKEVATLSCGHNVSVEELAQTRIYWQKSKKMVLTMMSGDMNIWPEYKNRTIFDITNNLSIVILTLRPSDEGTYECVVLKYEKDAFKREHLAEVTLSVKADGGGGSGGGGSGGGGSGGGGSGEVQLLESGGGLVQPGGSLRLSCAASGFTFSSYAMSWVRQAPGKGLEWVSGISGSGGFTYYADSVKGRFTISRDNSKNTLYLQMNSLRAEDTAVYYCAKPPRGYNYGPFDYWGQGTLVTVSSASTKGPSVFPLAPCSRSTSESTAALGCLVKDYFPEPVTVSWNSGALTSGVHTFPAVLQSSGLYSLSSVVTVPSSSLGTKTYTCNVDHKPSNTKVDKRVESKYGPPCPPCPAPEFLGGPSVFLFPPKPKDTLMISRTPEVTCVVVDVSQEDPEVQFNWYVDGVEVHNAKTKPREEQFNSTYRVVSVLAVLHQDWLNGKEYKCKVSNKGLPSSIEKTISKAKGQPREPQVYTLPPSQEEMTKNQVSLTCLVKGFYPSDIAVAWESNGQPENNYKTTPPVLDSDGSFFLYSRLTVDKSRWQEGNVFSCSVMHEALHAHYTQKSLSLSLGK light: SYVLTQPPSVSVAPGQTARITCGGNNIGSKSVHWYQQKPGQAPVLVVYDDSDRPSGIPERFSGSNSGNTATLTISRVEAGDEADYYCQVWDSSSDHVVFGGGTKLTVLGQPKAAPSVTLFPPSSEELQANKATLVCLISDFYPGAVTVAWKADSSPVKAGVETTTPSKQSNNKYAASSYLSLTPEQWKSHRSYSCQVTHEGSTVEKTVAPTECS
